According to paper PMC4852450, “SepG coordinates sporulation-specific cell division and nucleoid organization in Streptomyces coelicolor” (Open Biology, 2016):

Columns and labels:
SepG–mCherry = target: T1, SepG–mCherry (S. coelicolor, UniProt Q9S2X3 1-94); assay: FRET or BRET; acceptor photobleaching in living S. coelicolor M145 hyphae; donor eGFP, acceptor mCherry; post-bleach donor intensity relative to the pre-bleach intensity (set to 1); conditions: partners not purified
T1 construct: SepG (YlmG), SCO2078, 94 aa membrane protein of Streptomyces coelicolor; called full-length sepG in the methods; egfp of pGWS755 replaced by the gene for mCherry; also called YlmG; SCO2078; source: S. coelicolor M145, expressed from the ftsZ promoter region (pGWS791), in living aerial hyphae; not shown: mCherry, C-terminal, kept
T1 sequence (looked up): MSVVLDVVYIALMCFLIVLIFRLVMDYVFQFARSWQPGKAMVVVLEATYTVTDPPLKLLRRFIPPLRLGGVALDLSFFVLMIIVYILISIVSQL

FtsZ–mCherry = target: T2, FtsZ–mCherry (S. coelicolor, UniProt P45500 1-399); assay: as above; conditions: partners not purified
T2 construct: FtsZ, cell division scaffold protein of Streptomyces coelicolor; The FtsZ–mCherry construct is not described in the main text; source: S. coelicolor M145, expressed in living aerial hyphae
T2 sequence (looked up): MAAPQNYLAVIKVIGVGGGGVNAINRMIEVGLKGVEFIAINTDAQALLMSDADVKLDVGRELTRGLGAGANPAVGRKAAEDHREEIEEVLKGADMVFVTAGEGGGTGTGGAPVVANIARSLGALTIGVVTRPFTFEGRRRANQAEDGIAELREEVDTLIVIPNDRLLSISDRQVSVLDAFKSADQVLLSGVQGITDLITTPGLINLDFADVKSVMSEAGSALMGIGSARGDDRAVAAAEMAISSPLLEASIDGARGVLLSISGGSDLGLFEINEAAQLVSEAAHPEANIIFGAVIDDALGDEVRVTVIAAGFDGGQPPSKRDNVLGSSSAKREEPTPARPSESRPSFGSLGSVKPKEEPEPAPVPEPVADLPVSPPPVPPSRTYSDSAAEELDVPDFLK

donor fluorescence intensity after acceptor photobleaching, relative to before (FRET) (SepG–mCherry): 1.05
donor fluorescence intensity after acceptor photobleaching, relative to before (FRET) (FtsZ–mCherry): 1.08
B1: SsgB–eGFP (natural protein, S. coelicolor, UniProt Q9L268 1-137, looked up)
chain: MNTTVSCELHLRLVVSSESSLPVPAGLRYDTADPYAVHATFHTGAEETVEWVFARDLLAEGLHRPTGTGDVRVWPSRSHGQGVVCIALSSPEGEALLEAPARALESFLKRTDAAVPPGTEHRHFDLDQELSHILAES
notes: SsgB, SCO1541, FtsZ-recruiting cell division protein of Streptomyces coelicolor; also called SCO1541; source: S. coelicolor M145, expressed in living aerial hyphae
